The values below come from the supplement of paper PMC10567573.

First the molecules themselves.
B1: SMTNL2 (parent)
chain: QKNFELAFTMAENLANCERLIEVE
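Further: lentivirally expressed fusions sorted by FACS into six bins by GFP to DsRed ratio, PSI derived from sequencing read proportions per bin multiplied by bin number.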

Variants of B1 are the subject of the series. The series can be described thus: protein stability index of a GFP-peptide fusion (GPS, HEK-293T) (PSI 1-6); higher = more stable. The conditions noted are these: c terminus: a fixed tail appended.
QKNFELAFTMAENLANCERLIEYE [V23Y]: the protein stability index worked out at 3.99.

For the variant QKNFELAFTMAENLANCERLIEAE [V23A], the protein stability index turned out to be 2.18.

For QKNFELAFTMAENLANCERLIEIE [V23I], the protein stability index is 1.78.

QKNFELAFTMAENLANCERLIEPE [V23P]: the protein stability index came out at 2.98.

Consider QKNFELVFTMAENLANCERLIEVE [A7V], for which the protein stability index stood at 1.77.

For QKNFELPFTMAENLANCERLIEVE [A7P], the protein stability index worked out at 3.32.

Consider QKNFELCFTMAENLANCERLIEVE [A7C], for which the protein stability index amounted to 2.56.

As for QKNFELAFTMAENLANCEFLIEVE [R19F], the protein stability index was 2.86.

As for QKNFELAFTMAENLANCESLIEVE [R19S], the protein stability index was found to be 2.55.

In the case of QKNFELAFTMAENLANCEELIEVE [R19E], the protein stability index worked out at 3.33.

As to QKNFELAFTMAENLANCEVLIEVE [R19V], the protein stability index amounted to 1.27.

As to QKNFELAFTMAENLANCENLIEVE [R19N], the protein stability index was found to be 3.03.

Consider QKNFELAFTMAENLANCERLIEVQ [E24Q], for which the protein stability index worked out at 1.33.

Consider QKNFELAFTMAENLANCERLIEVK [E24K], for which the protein stability index stood at 2.22.

For QKNFELAFTMAENRANCERLIEVE [L14R], the protein stability index worked out at 3.92.

QKNFELAFTMAENVANCERLIEVE [L14V]: the protein stability index came to 3.19.

Take QKNFELAFTMAENTANCERLIEVE [L14T]: the protein stability index turned out to be 3.79.

Regarding QKNFELAFTMAENKANCERLIEVE [L14K], the protein stability index was 3.8.

In the case of QKNFELAFTMAENCANCERLIEVE [L14C], the protein stability index is 3.14.

On to QKNFELAFTMAENQANCERLIEVE [L14Q], for which the protein stability index was 3.98.

With QKNFELAFTMAENFANCERLIEVE [L14F], the protein stability index was determined as 3.11.

With QKNFELAFTMAENYANCERLIEVE [L14Y], the protein stability index was found to be 3.37.

On to QKNFELAFTMAENWANCERLIEVE [L14W], for which the protein stability index turned out to be 2.26.

Consider QKNFELAFTMAENSANCERLIEVE [L14S], for which the protein stability index was found to be 3.69.

On to QKNFELAFTMAENHANCERLIEVE [L14H], for which the protein stability index is 3.53.

Consider QKNFELAFTMAENAANCERLIEVE [L14A], for which the protein stability index was 3.7.

As to QKNFELATTMAENLANCERLIEVE [F8T], the protein stability index turned out to be 2.6.

On to QKNFELASTMAENLANCERLIEVE [F8S], for which the protein stability index worked out at 1.45.

As to QKNFELADTMAENLANCERLIEVE [F8D], the protein stability index was 4.41.

For QKNFELAFTMAENLANCNRLIEVE [E18N], the protein stability index worked out at 2.22.

With QKNFELAFTMAENLANCGRLIEVE [E18G], the protein stability index was 1.84.

Take QKNFELAFTMAENLANCHRLIEVE [E18H]: the protein stability index was determined as 2.64.

Consider QKNFELAFTMAENLANCKRLIEVE [E18K], for which the protein stability index was found to be 2.04.

For the variant QKNFELAFTMAENLANCRRLIEVE [E18R], the protein stability index stood at 1.85.

With QKNFELAFTMAENLANCERYIEVE [L20Y], the protein stability index turned out to be 2.08.

In the case of QKNFELAFTMAENLANCERPIEVE [L20P], the protein stability index turned out to be 3.58.

As to QKNFELAFTMAENLANCERNIEVE [L20N], the protein stability index came out at 4.06.

In the case of QKNFELAFTMAENLANCERQIEVE [L20Q], the protein stability index came out at 1.61.

Consider QKNFELAFTMAENLANCERTIEVE [L20T], for which the protein stability index worked out at 2.25.

For QKNFELAFTMAENLANCERCIEVE [L20C], the protein stability index came out at 2.1.

For QKNFELAFTMAENLANCERLIIVE [E22I], the protein stability index stood at 2.9.

QKNFELAFTMAENLANCERLICVE [E22C]: the protein stability index amounted to 2.79.

QKNFELAFTMAENLANCERLIGVE [E22G]: the protein stability index was 1.55.

On to QKNFELAFTMAENLANCERLIHVE [E22H], for which the protein stability index turned out to be 1.88.

For QKNFELAFTMAENLANCERLINVE [E22N], the protein stability index came to 1.68.

In the case of QKNFELAFTKAENLANCERLIEVE [M10K], the protein stability index was 3.9.

As for QKNFELAFTNAENLANCERLIEVE [M10N], the protein stability index amounted to 4.24.

On to QKNFELAFTIAENLANCERLIEVE [M10I], for which the protein stability index stood at 1.57.

In the case of QKNFELAFTHAENLANCERLIEVE [M10H], the protein stability index is 3.91.

QKNFELAFTVAENLANCERLIEVE [M10V]: the protein stability index was found to be 3.29.

For QKNFELAFTTAENLANCERLIEVE [M10T], the protein stability index is 3.66.

Turning to QKNFELAFTWAENLANCERLIEVE [M10W], the protein stability index amounted to 1.41.

QKNFELAFTMAEVLANCERLIEVE [N13V]: the protein stability index is 1.33.

QKNFELAFTMAEPLANCERLIEVE [N13P]: the protein stability index turned out to be 3.63.

With QKNFELAFTMAERLANCERLIEVE [N13R], the protein stability index stood at 1.67.

Consider QKNFELAFTMAESLANCERLIEVE [N13S], for which the protein stability index turned out to be 2.33.

Regarding QKNFELAFTMAEYLANCERLIEVE [N13Y], the protein stability index is 2.99.

On to QKNFELAFTMAELLANCERLIEVE [N13L], for which the protein stability index is 1.98.

Take QKNFELAFTMAEHLANCERLIEVE [N13H]: the protein stability index amounted to 1.41.

As for QKNFELAFTMAEQLANCERLIEVE [N13Q], the protein stability index stood at 1.68.

Take QKYFELAFTMAENLANCERLIEVE [N3Y]: the protein stability index came to 1.96.

Take QKNFELAFTMNENLANCERLIEVE [A11N]: the protein stability index was found to be 2.82.

With QKNFELAFTMSENLANCERLIEVE [A11S], the protein stability index amounted to 2.79.

In the case of QKNFELAFTMIENLANCERLIEVE [A11I], the protein stability index worked out at 4.18.

Consider QKNFELAFEMAENLANCERLIEVE [T9E], for which the protein stability index was found to be 2.9.

For QKNFELAFQMAENLANCERLIEVE [T9Q], the protein stability index is 1.89.

Take QKNFELAFGMAENLANCERLIEVE [T9G]: the protein stability index was found to be 2.02.

Turning to QKNFELAFSMAENLANCERLIEVE [T9S], the protein stability index came to 1.98.

Consider QKNFELAFYMAENLANCERLIEVE [T9Y], for which the protein stability index was determined as 2.57.

With QKNFELAFCMAENLANCERLIEVE [T9C], the protein stability index amounted to 2.03.

In the case of QVNFELAFTMAENLANCERLIEVE [K2V], the protein stability index came to 1.67.

Take QGNFELAFTMAENLANCERLIEVE [K2G]: the protein stability index amounted to 1.74.

With QTNFELAFTMAENLANCERLIEVE [K2T], the protein stability index is 1.03.

As for QKNFELAFTMAENLAECERLIEVE [N16E], the protein stability index came out at 2.89.

QKNFELAFTMAENLAQCERLIEVE [N16Q]: the protein stability index is 2.33.

Turning to QKNFELAFTMAENLARCERLIEVE [N16R], the protein stability index was found to be 1.44.

For the variant QKNFETAFTMAENLANCERLIEVE [L6T], the protein stability index stood at 2.01.

For QKNFERAFTMAENLANCERLIEVE [L6R], the protein stability index stood at 3.29.

As to QKNFEGAFTMAENLANCERLIEVE [L6G], the protein stability index is 3.23.

For QKNFEQAFTMAENLANCERLIEVE [L6Q], the protein stability index was found to be 2.54.

Take GKNFELAFTMAENLANCERLIEVE [Q1G]: the protein stability index stood at 1.2.

As for FKNFELAFTMAENLANCERLIEVE [Q1F], the protein stability index was determined as 3.06.

In the case of NKNFELAFTMAENLANCERLIEVE [Q1N], the protein stability index was found to be 1.67.

Turning to QKNFELAFTMAVNLANCERLIEVE [E12V], the protein stability index was determined as 3.63.

QKNFELAFTMAHNLANCERLIEVE [E12H]: the protein stability index turned out to be 2.01.

Regarding QKNFELAFTMAWNLANCERLIEVE [E12W], the protein stability index was 3.4.

Take QKNFELAFTMADNLANCERLIEVE [E12D]: the protein stability index came out at 1.8.

For the variant QKNFELAFTMAPNLANCERLIEVE [E12P], the protein stability index was 2.26.

On to QKNFELAFTMAENLINCERLIEVE [A15I], for which the protein stability index amounted to 1.87.

In the case of QKNFELAFTMAENLYNCERLIEVE [A15Y], the protein stability index turned out to be 1.84.

As for QKNFELAFTMAENLCNCERLIEVE [A15C], the protein stability index worked out at 2.46.

With QKNFELAFTMAENLGNCERLIEVE [A15G], the protein stability index was 2.67.

With QKNFELAFTMAENLMNCERLIEVE [A15M], the protein stability index was determined as 1.92.

Turning to QKNFELAFTMAENLQNCERLIEVE [A15Q], the protein stability index is 1.42.
